From paper doi:10.1101/2024.07.05.602318 (bioRxiv, 2024)
Substitutions are numbered along the chain they refer to. Names and notes keep the numbering of the source. Blank lines part the entries; values can stand above or below the binder they belong to.

Biological target: CLPX-3xFLAG (human, UniProt O76031 65-633)
Test: co-IP

CLPX-3xFLAG, sequence (O76031 65-633): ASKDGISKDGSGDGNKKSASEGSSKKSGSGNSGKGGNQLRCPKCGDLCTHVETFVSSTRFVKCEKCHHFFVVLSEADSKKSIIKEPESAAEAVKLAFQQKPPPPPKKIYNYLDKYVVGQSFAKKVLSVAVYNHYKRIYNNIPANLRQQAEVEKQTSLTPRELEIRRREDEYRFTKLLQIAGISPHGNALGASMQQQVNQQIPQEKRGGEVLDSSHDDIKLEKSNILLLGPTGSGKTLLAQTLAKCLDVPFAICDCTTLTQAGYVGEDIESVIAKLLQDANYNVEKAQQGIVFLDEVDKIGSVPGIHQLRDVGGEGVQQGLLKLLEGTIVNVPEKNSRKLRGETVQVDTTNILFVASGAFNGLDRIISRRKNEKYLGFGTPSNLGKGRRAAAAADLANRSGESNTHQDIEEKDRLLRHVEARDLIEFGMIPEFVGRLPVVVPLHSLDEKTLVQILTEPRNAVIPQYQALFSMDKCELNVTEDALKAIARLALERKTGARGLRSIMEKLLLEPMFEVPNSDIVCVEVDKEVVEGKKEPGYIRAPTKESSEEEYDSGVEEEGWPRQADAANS

binding result: binds
B1: POLDIP2 H225A, residues 52-368 (natural protein, human, UniProt Q9Y2S7 52-368, looked up)
chain: SSRNRPEGKVLETVGVFEVPKQNGKYETGQLFLHSIFGYRGVVLFPWQARLYDRDVASAAPEKAENPAGHGSKEVKGKTHTYYQVLIDARDCPHISQRSQTEAVTFLANHDDSRALYAIPGLDYVSHEDILPYTSTDQVPIQHELFERFLLYDQTKAPPFVARETLRAWQEKNAPWLELSDVHRETTENIRVTVIPFYMGMREAQNSHVYWWRYCIRLENLDSDVVQLRERHWRIFSLSGTLETVRGRGVVGREPVLSKEQPAFQYSSHVSLQASSGHMWGTFRFERPDGSHFDVRIPPFSLESNKDEKTPPSGLHW

binding result: binds
B2: POLDIP2 (DNA polymerase delta interacting protein 2), residues 52-368 (natural protein, human, UniProt Q9Y2S7 52-368, looked up)
chain: B1 chain with A174H
